T1: EphA10 antigen (R&D systems) (Homo sapiens (Human), UniProt Q5JZY3 34-565)
T1 construct: Coated antigen in the indirect ELISA; The Biacore assay says only 'EphA 10' without source or form; also called ephrin type-A receptor 10
T1 sequence: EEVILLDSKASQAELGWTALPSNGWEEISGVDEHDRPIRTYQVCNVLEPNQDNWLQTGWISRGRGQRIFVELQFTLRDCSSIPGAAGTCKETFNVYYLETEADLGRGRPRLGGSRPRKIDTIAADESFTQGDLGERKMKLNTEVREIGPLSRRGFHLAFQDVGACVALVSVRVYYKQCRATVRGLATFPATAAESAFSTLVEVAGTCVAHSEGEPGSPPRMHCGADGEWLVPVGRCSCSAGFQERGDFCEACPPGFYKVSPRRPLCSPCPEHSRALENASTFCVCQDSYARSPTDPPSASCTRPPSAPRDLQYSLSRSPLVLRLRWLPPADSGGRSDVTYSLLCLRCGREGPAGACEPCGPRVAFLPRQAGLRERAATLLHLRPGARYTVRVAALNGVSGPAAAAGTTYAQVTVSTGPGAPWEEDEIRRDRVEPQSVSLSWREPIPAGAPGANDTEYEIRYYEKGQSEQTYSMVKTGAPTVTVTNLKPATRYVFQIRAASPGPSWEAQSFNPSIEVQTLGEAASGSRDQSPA

T2: full-length human EphA10 expressed on NIH 3T3 cells (human, UniProt Q5JZY3 34-1008)
T2 construct: whole, on cells
T2 sequence (looked up): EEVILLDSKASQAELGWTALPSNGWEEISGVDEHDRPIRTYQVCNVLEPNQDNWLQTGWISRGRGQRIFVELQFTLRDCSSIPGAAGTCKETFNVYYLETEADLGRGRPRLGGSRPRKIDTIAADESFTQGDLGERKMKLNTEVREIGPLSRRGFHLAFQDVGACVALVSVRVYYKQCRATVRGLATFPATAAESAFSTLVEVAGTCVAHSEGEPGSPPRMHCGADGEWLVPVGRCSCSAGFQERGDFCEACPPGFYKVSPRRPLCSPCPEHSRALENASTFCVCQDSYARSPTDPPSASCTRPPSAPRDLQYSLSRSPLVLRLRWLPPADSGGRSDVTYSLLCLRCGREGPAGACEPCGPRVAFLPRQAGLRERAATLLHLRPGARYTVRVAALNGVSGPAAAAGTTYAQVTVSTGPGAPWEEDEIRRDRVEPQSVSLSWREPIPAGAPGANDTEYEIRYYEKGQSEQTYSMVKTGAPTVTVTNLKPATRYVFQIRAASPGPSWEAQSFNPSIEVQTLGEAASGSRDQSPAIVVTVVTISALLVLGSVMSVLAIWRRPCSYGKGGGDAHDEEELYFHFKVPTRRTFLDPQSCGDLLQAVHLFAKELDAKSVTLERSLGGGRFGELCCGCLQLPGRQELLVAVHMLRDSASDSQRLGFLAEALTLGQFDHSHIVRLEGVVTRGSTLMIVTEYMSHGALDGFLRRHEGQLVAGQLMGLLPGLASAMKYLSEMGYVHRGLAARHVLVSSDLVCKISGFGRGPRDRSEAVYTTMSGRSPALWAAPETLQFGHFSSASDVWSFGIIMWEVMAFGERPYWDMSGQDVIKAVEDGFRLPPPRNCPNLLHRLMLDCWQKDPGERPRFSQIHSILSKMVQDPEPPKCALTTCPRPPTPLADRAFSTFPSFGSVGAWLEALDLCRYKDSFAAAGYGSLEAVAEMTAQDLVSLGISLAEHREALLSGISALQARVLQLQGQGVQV

B1: CMU #13 ScFv-mouse IgG2a antibody (Fc fusion)
chain: QVQLVQSGAEVKKPGSSVKVSCKASGGTFSSYAISWVRQAPGQGLEWMGGIIPIFGTANYAQKFQGRVTITADESTSTAYMELSSLRSEDTAVYYCAREGDSYGYYYGMDVWGQGTTVTVSSGGGGSGGGGSGGGGSQPVLTQPPSASGTPGQRVTISCSGSSSNIGSNYVYWYQQLPGTAPKLLIYENYLRPSGVPDRFSGSKTGTSASLAISGLQSEDEADYYCAAWDDSLNGYVFGTGTQLTVLSEPRGPTIKPCPPCKCPAPNLLGGPSVFIFPPKIKDVLMISLSPIVTCVVVDVSEDDPDVQISWFVNNVEVHTAQTQTHREDYNSTLRVVSALPIQHQDWMSGKEFKCKVNNKDLPAPIERTISKPKGSVRAPQVYVLPPPEEEMTKKQVTLTCMVTDFMPEDIYVEWTNNGKTELNYKNTEPVLDSDGSYFMYSKLRVEKKNWVERNSYSCSVVHEGLHNHHTTKSFSRTPGK
notes: The Biacore assay names only 'CMU #13'; also called anti-EphA10 antibody CMU #13
B2: CMU #13 scFv (clone from human B cell-derived scFv phage display library) (scFv)
scFv: QVQLVQSGAEVKKPGSSVKVSCKASGGTFSSYAISWVRQAPGQGLEWMGGIIPIFGTANYAQKFQGRVTITADESTSTAYMELSSLRSEDTAVYYCAREGDSYGYYYGMDVWGQGTTVTVSSGGGGSGGGGSGGGGSQPVLTQPPSASGTPGQRVTISCSGSSSNIGSNYVYWYQQLPGTAPKLLIYENYLRPSGVPDRFSGSKTGTSASLAISGLQSEDEADYYCAAWDDSLNGYVFGTGTQLTVLS

Legend:
[1] = biological target: T1, EphA10 antigen (R&D systems); assay: Biacore 8K SPR, global fit to 1:1 binding model, triplicates
Text: CMU #13 was also subjected to a Biacore assay.

[2] = biological target: T1, EphA10 antigen (R&D systems); assay: indirect ELISA on coated EphA antigen, ScFv-mouse IgG2a antibody titrated
Method: ScFv sequences were fused with mouse IgG2a sequence and sub-cloned into pcDNA3.1 plasmid. Three ScFv-mouse IgG2a plasmids were transfected into HEK293 cells. Three ScFv-mouse IgG2a antibodies were purified by protein A resin. Three antibodies were tested for indirect ELISA against coated 9 EPHA antigens (EphA1-8 and 10, R&D systems).

[3] = biological target: T2, full-length human EphA10 expressed on …; assay: FACS on NIH 3T3 cells expressing full-length human EphA10

Binder	Kd [1]	koff [1]	kon [1]	EC50 (read off the curve) [2]	binding result [3]
B1	1.79 nM	0.00288 s⁻¹	1.61e+06 M⁻¹ s⁻¹	~0.4 nM	–
B2	–	–	–	–	binds

Source: patent publication US20250017968A1 (CHINA MEDICAL UNIVERSITY, published 2025)
